Test [1] deals with soluble SorCS2 (extracellular domain of SorCS2), immobilized on the Biacore chip (Homo sapiens in the sequence list; not stated for the assay) (UniProt Q96PQ0). The test is described as follows: SPR (BIAcore), soluble SorCS2 immobilized, propeptide at 20 nM and 50 nM.
For test [2], the target named is T1, soluble SorCS2 (extracellular domain of SorCS2), immobilized on the Biacore chip (Homo sapiens in the sequence list; not …, UniProt Q96PQ0 51-1078).
T1 construct: also called immobilized soluble SorCS2
T1 sequence (Q96PQ0 51-1078 S716P limits assumed): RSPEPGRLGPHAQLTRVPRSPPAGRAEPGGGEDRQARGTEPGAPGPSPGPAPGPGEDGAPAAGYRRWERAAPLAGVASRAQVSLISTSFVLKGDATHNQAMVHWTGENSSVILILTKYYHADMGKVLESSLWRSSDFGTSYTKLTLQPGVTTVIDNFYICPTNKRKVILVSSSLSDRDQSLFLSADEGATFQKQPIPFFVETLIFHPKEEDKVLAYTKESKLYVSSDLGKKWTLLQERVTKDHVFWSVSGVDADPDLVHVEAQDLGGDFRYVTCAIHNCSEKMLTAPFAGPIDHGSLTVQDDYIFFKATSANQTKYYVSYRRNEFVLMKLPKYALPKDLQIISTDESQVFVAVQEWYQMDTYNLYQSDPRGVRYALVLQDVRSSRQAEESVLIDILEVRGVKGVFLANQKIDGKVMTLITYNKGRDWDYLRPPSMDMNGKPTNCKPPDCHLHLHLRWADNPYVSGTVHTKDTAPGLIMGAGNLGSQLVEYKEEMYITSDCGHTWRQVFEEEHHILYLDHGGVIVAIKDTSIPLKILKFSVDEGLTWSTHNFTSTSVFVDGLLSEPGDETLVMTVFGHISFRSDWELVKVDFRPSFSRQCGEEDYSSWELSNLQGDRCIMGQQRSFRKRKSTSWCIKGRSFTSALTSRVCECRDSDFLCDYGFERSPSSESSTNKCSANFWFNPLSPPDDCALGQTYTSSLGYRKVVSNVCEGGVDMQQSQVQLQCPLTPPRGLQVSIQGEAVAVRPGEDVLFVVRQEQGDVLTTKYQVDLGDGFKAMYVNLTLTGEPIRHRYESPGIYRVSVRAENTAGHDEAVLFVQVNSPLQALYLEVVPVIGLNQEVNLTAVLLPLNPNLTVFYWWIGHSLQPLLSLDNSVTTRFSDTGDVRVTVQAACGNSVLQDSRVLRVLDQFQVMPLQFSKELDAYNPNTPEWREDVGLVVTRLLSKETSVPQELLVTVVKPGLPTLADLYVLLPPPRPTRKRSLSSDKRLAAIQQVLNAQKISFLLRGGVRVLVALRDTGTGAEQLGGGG
As to the kind of experiment: SPR (BIAcore), soluble SorCS2 immobilized, BDNF at 10 nM and 20 nM.

The target in test [3] is T1, soluble SorCS2 (extracellular domain of …). As to the kind of experiment: SPR (BIAcore), soluble SorCS2 immobilized, p75 ECD at 1 uM. As for the experimental part: FIG. 6: Physical interaction between SorCS2 and p75^NTR. A, HEK293 cells stably transfected with SorCS2 and p75^NTR encoding vectors were crosslinked with DSP (Pierce) and subsequently lysed. The cell lysate was incubated with antibody against SorCS2 bound to Gammabind beads (GE Healthcare). The precitated complexes were eluted from the washed beads with SDS loading buffer. […] The presence of p75^NTR and IgG heavy is indicated. HEK293 cells stably transfected with a p75^NTR encoding plasmid alone were used as negative control. B, surface plasmon resonance experiment (BIAcore) showing the direct interaction of soluble full-length extracellular domain of p75^NTR (p75 ECD) with immobilized soluble SorCS2. The p75 ECD concentration used was 1 μM.
HEK293 cells stably transfected with plasmids encoding SorCS2 and p75^NTR were crosslinked with DSP (Pierce) and subsequently lysed. The cell lysate was incubated with antibody against SorCS2 bound to Gammabind beads (GE Healthcare). Precipitated complexes were eluted from the washed beads with SDS loading buffer. […] A biosensor chip from Biacore (CM5, cat.no. BR-1000-14) was activated using the NHS/EDC method as described by the supplier followed by coating with SorCS2 (FIG. 6B).

Among the data in US20120052075A1 (H LUNDBECK A S, published 2012) are Kd values, retold here.

As usually defined, the Kd is a measure of binding affinity in units of concentration.

soluble SorCS2 (extracellular domain of SorCS2), immobilized on the Biacore chip (Homo sapiens in the sequence list; not stated for the assay), sequence (Q96PQ0 51-1078 S716P limits assumed): as above

Regarding “BDNF propeptide (from UniProt P23560 19-128) (ligand)”, the dissociation constant Kd in test [1] came to 15 nM.

B1: mature BDNF (ligand)
chain: HSDPARRGELSVCDSISEWVTAADKKTAVDMSGGTVTVLEKVPVSKGQLKQYFYETKCNPMGYTKEGCRGIDKRHWNSQCRTTQSYVRALTMDSKKRIGWRFIRIDTSCVCTLTIKRGR
For B1, the affinity in test [2], expressed as Kd, was 5 nM.

B2: soluble full-length extracellular domain of p75^NTR (receptor)
chain: KEACPTGLYTHSGECCKACNLGEGVAQPCGANQTVCEPCLDSVTFSDVVSATEPCKPCTECVGLQSMSAPCVEADDAVCRCAYGYYQDETTGRCEACRVCEAGSGLVFSCQDKQNTVCEECPDGTYSDEANHVDPCLPCTVCEDTERQLRECTRWADAECEEIPGRWITRSTPPEGSDSTAPSTQEPEAPPEQDLIASTVAGVVTTVMGSSQPVVTRGTTDN
notes: Whole entry named; also called p75 ECD
Take B2: the Kd in test [3] is around 10 nM.
